Assay results taken from patent US20160346402A1 (Bayer, published 2016).

Legend:
[1] = target: T1, TPP-2617, TweakR-ECD-34-68-hIgGFc-His-S54A (human); test: alanine scan ELISA: IgG coated 1 µg/ml, HEK293 supernatant of TWEAKR(34-68)-Fc construct, anti-HIS-HRP
T1 construct: Used as HEK293 supernatant; also called S54A mutein

[2] = target: T2, TPP-2612, TweakR-ECD-34-68-hIgGFc-His-S43A (human); test: as above
T2 construct: Used as HEK293 supernatant; also called S43A mutein

[3] = target: T3, TPP-2618, TweakR-ECD-34-68-hIgGFc-His-R56A (human); test: as above
T3 construct: Used as HEK293 supernatant; also called R56A mutein

[4] = target: T4, TPP-2615, TweakR-ECD-34-68-hIgGFc-His-K48A (human); test: as above
T4 construct: Used as HEK293 supernatant; also called K48A mutein

[5] = target: T5, TPP-2609, TweakR-ECD-34-68-hIgGFc-His-S40A (human); test: as above
T5 construct: Used as HEK293 supernatant; also called S40A mutein

[6] = target: T6, TPP-2613, TweakR-ECD-34-68-hIgGFc-His-D45A (human); test: as above
T6 construct: Used as HEK293 supernatant; also called D45A mutein

[7] = target: T7, TPP-2622, TweakR-ECD-34-68-hIgGFc-His-S61A (human); test: as above
T7 construct: Used as HEK293 supernatant; also called S61A mutein

[8] = target: T8, TPP-2608, TweakR-ECD-34-68-hIgGFc-His-R38A (human); test: as above
T8 construct: Used as HEK293 supernatant; also called R38A mutein

[9] = target: T9, TPP-2620, TweakR-ECD-34-68-hIgGFc-His-P59A (human); test: as above
T9 construct: Used as HEK293 supernatant; also called P59A mutein

[10] = target: T10, TPP-2616, TweakR-ECD-34-68-hIgGFc-His-D51A (human); test: as above
T10 construct: Used as HEK293 supernatant; also called D51A mutein

[11] = target: T11, TPP-2619, TweakR-ECD-34-68-hIgGFc-His-R58A (human); test: as above
T11 construct: Used as HEK293 supernatant; also called R58A mutein

[12] = target: T12, TPP-2621, TweakR-ECD-34-68-hIgGFc-His-H60A (human); test: as above
T12 construct: Used as HEK293 supernatant; also called H60A mutein

[13] = target: T13, TPP-2625, TweakR-ECD-34-68-hIgGFc-His-L65A (human); test: as above
T13 construct: Used as HEK293 supernatant; also called L65A mutein

[14] = target: T14, TPP-2607, TweakR-ECD-34-68-hIgGFc-His-S37A (human); test: as above
T14 construct: Used as HEK293 supernatant; also called S37A mutein

[15] = target: T15, TPP-2624, TweakR-ECD-34-68-hIgGFc-His-F63A (human); test: as above
T15 construct: Used as HEK293 supernatant; also called F63A mutein

[16] = target: T16, TPP-2623, TweakR-ECD-34-68-hIgGFc-His-D62A (human); test: as above
T16 construct: Used as HEK293 supernatant; also called D62A mutein

[17] = target: T17, TPP-2611, TweakR-ECD-34-68-hIgGFc-His-W42A (human); test: as above
T17 construct: Used as HEK293 supernatant; also called W42A mutein (34-68)

[18] = target: T18, TPP-2610, TweakR-ECD-34-68-hIgGFc-His-S41A (human); test: as above
T18 construct: Used as HEK293 supernatant; also called S41A mutein

[19] = target: T19, TPP-2202, TWEAKR-ECD-28-80-hIgGFc-His (human); test: ELISA: TPP-2202 (TWEAKR 28-80-Fc) coated at 1 µg/ml; biotinylated IgG at 0.08 µg/ml (open bars) and 0.3 µg/ml (solid bars; legend of FIG. 3 prints 0.03); streptavidin-HRP, Amplex Red; Y = signal [Rfu]
T19 construct: also called TWEAKR-Fc fusion protein; full-length ectodomain Fc fusion
Procedure: FIG. 3: Interaction of the TWEAKR ectodomain with antibodies and reference antibodies. […] Detection was carried out using streptavidin-HRP and Amplex Red substrate.
Detection was carried out using streptavidin-HRP and Amplex Red substrate. IgGs were biotinylated using an about 2-fold molar excess of biotin-LC-NHS (Pierce; Cat. No. 21347) according to the instructions of the manufacturer and desalted using Zeba desalting columns (Pierce; Cat. No. 89889).

T19 sequence (chain, as listed by the source limits assumed): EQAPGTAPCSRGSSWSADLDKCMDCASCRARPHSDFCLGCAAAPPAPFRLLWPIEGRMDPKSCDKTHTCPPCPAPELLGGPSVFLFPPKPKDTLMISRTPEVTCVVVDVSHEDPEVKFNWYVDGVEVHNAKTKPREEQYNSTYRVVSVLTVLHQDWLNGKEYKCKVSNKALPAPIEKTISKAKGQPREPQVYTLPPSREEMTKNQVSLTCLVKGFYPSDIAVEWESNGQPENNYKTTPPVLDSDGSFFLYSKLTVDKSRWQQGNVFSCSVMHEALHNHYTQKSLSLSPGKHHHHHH

binding result [1]: no binding | binding result [2]: no binding | binding result [3]: no binding | binding result [4]: no binding | binding result [5]: no binding | binding result [6]: no binding | binding result [7]: no binding | binding result [8]: no binding | binding result [9]: no binding | binding result [10]: no binding | binding result [11]: no binding | binding result [12]: no binding | binding result [13]: no binding | binding result [14]: no binding | binding result [15]: no binding | binding result [16]: no binding | binding result [17]: no binding | binding result [18]: no binding | binding result [19]: binds
B1: P4A8(TPP-1324) (antibody, human IgG1, kappa, V domains shown)
VH: QVQLVQSGAEVKKPGASVKVSCKGSGYTFTDYGMHWVRQAPGQGLEWMGVISTYNGYTNYNQKFKGRVTMTVDKSTSTAYMELRSLRSDDTAVYYCARAYYGNLYYAMDYWGQGTLVTVSS
VL: DIVLTQSPASLAVSLGQRATISCRASKSVSTSSYSYMHWYQQKPGQPPKLLIKYASNLESGVPARFSGSGSGTDFSLNIHPMEEDDTAMYFCQHSRELPFTFGGGTKLEIKR
notes: Comparative antibody; variable domains from WO2009/140177 with human IgG1 constant region added
